According to patent US6946130 (GlaxoSmithKline, dated 2005):

Tests used:
[1] = biological target: T1, human interleukin 5 (recombinant human IL-5, expressed in Drosophila Schneider 2 cells) (human, UniProt P05113 20-134); assay: IL-5R alpha binding inhibition assay (125I-IL-5, Drosophila membranes)
T1 construct: also called hIL-5
Procedure: Assays with *Drosophila* membranes containing receptor were performed in MultiscreenGV™ plates (Millipore Corp., Bedford, Mass.) using *Drosophila* tissue culture medium M3 (Lindquist et al., *Drosophila Inf. Serv.*, 58: 163 (1982)) containing 25 mM HEPES buffer pH 7.2 and 0.1% BSA (Binding Buffer). Wells were pre-blocked with 0.1 ml binding buffer. […] After 20 minutes incubation at room temperature, 25 ul of the membrane extract of *Drosophila* S2 cells expressing the α-chain of the human IL5R was added to the wells. After 1 hour further incubation the membranes were collected by vacuum filtration and washed 3× with binding buffer. Filters were dried and counted.
The Fd and κ cDNAs of mAb (2B6) were isolated by PCR using the conditions described above. The gel-purified fragments were subcloned into the pMKFabGene3 vector which had been modified to include the hexa-His sequence 3' of the gene III cDNA, resulting in the plasmid pMKFabGene3H. A functional, IL-5 binding Fab clone containing the 2B6 heavy and light chains was identified by a colony lift assay. Upon removal gene III via Nhe I/SpeI I digestion and self-ligation the heavy chain was fused in frame to the hexa-His, allowing purification as described above.

[2] = biological target: T1, human interleukin 5 (recombinant human …); assay: optical biosensor

B1: recombinant Fab containing the 2B6 heavy and light chains (Fd fused to hexa-His) (Fab)
heavy (part 1 of 2): QVQLKESGPGLVAPSQSLSITCTVSGFSLTSYSVHWVRQPPGKGLEWLGVIWASGGTDYNSALMSRLSISKDNSKSQVFLKLNSLQTDDTAMYYCARDPPSSLLRLDYWGQGTTLTVSS
heavy (part 2 of 2): HHHHHH
light: DIVMTQSPSSLSVSAGEKVTMSCKSSQSLLNSGNQKNYLAWYQQKPGQPPKLLIYGASTRESGVPDRFTGSGSGTDFTLSISSVQAEDLAVYYCQNVHSFPFTFGSGTELEIK
notes: Expressed in E. coli from pMKFabGene3H after removal of gene III; also called Fab fragment from 2B6; 2B6 Fab; not shown: murine CH1 (rest of the 2B6 Fd); murine kappa constant region
IC50 [1]: ~7.5 µg/mL | Kd [2]: ~0.09 nM
